Test results as given in patent US20250236653A1.

How the values were obtained:
[1] = target: cynomolgus monkey OX40 (cynomolgus monkey); assay: flow cytometry on cOX40-Jurkat-NF-κB cells
human OX40 (human) [2] = target: human OX40 (human) (UniProt P43489); assay: flow cytometry, traditional IgG1 bivalent mAb on hOX40-Jurkat-NF-κB cells, APC anti-human IgG Fc detection
human OX40 (human) [3] = target: human OX40 (human) (UniProt P43489); assay: cell-based or functional assay

Sequence of human OX40 (human) (P43489 29-277): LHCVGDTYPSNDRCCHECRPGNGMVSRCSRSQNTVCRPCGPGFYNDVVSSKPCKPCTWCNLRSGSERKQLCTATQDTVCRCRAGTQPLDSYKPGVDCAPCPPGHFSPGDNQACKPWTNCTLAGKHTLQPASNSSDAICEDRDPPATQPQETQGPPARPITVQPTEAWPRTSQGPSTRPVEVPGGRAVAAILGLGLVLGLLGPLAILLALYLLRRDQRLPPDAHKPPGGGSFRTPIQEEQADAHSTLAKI

B1: hG1-20E5 (antibody, from another filing, V domains shown)
VH: EVQLQQSGPELVKPGASVKMSCKASGYTFTSYVMHWVKQKPGQGLEWIGYINPYNDGTKYNEKFKGKATLTSDKSSSTAYMELSSLTSEDSAVYYCANYYGSSLSMDYWGQGTSVTVSS
VL: DIQMTQTTSSLSASLGDRVTISCRASQDISNYLNWYQQKPDGTVKLLIYYTSRLHSGVPSRFSGSGSGTDYSLTISNLEQEDIATYFCQQGNTLPWTFGGGTKLEIKR
With B1 the fold difference of EC50 against hOX40-Jurkat-NF-κB cells [1] was under 2 fold, the EC50 (human OX40 (human) [2]) was 10.2 nM and the percentage of GFP positive hOX40/hIL-12R/Jurkat-NF-κB reporter cells in the presence of A20-hFcγRI cells, EC50 (human OX40 (human) [3]) was 0.13 nM.
